Earlier results in PMC7229808.

Biological target: PCNA (Saccharomyces cerevisiae) (UniProt P15873)
Experiment: NMR titration

UniProt P15873, sequence (P15873 whole entry): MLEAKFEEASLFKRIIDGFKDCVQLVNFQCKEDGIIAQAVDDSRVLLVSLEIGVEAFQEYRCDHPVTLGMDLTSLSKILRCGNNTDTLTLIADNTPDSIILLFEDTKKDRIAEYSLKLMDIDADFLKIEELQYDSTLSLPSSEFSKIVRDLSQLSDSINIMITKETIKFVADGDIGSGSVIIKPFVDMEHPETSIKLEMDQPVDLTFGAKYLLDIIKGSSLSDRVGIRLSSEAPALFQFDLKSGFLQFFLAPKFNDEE

Kd: 78 µM
Substance: Rev1 BRCT (from UniProt P12689)
